Data published in patent US20130156781A1 (GOVT OF THE UNITED STATES OF AMERICA H H N I H OFFICE OF …, published 2013).

T1: Recombinant human rTRAIL receptor 1 (DR4), extracellular part, amino acids 25-239 (human, UniProt O00220 25-239)
T1 construct: also called rDR4; recombinant DR4
T1 sequence: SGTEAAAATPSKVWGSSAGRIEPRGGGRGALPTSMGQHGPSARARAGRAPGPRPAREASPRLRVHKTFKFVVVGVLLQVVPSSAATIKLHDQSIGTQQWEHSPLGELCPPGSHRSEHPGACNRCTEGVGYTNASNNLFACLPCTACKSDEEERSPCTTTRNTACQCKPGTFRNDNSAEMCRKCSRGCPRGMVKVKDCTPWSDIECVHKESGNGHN


Columns and labels:
[1] = target: T2, DR5 (UniProt O14763 56-182, limits assumed); experiment: ELISA
T2 construct: also called TRAIL-R2

[2] = target: T1, Recombinant human rTRAIL receptor 1 …; experiment: ELISA, DR4 coated at 50 ng/well, IgG1 detected with anti-human Fc-HRP
Experimental: To testing binding of recombinant antibodies to DR4 in vitro, DR4 protein was coated onto half-area ELISA plate at 50 ng/well. After blocking with MPBS, different dilutions of antibodies were incubated with coated wells. For detection of binding antibodies, secondary antibody goat anti-Flag tag-HRP and goat anti-human Fc-HRP (both used at 1:1000) were used to detect Fab or IgG. The ELISA signal was developed with substrate ABTS, and read under wavelength 405 nm. […] The mixture was then added to wells for ELISA.

binding result [1]	EC50 [2] [nM]	Binder
no binding (tested: 1000 nM)	~10	m921 IgG1 (antibody, V domains shown, also called IgG m921; DR4 IgG m921) VH: QVQLQQSGPGLVKPSQTLSLTCAISGDSVSSNSAAWNWIRQSPSRGLEWLGRTYYRSKWYNDYAVSVKGRITINPDTSKNQFSLQLNSVTPEDTAVYYCARDLGVAAADSYYYYGMDVWGQGTTVTVSS VL: QPVLTQPPSASATPGQRVTISCSGSSSNIGSNTLDWFQQLPGTAPKLLIFDTNRRPSGVPDRFSGSKSGTSASLAISGLQAEDEAVYFCATWDNSLNGAVFGGGTKLSVPR
no binding (tested: 1000 nM)	~10	m922 IgG1 (antibody, V domains shown, also called IgG m922; DR4 m922 IgG) VH: QVQLQQSGPGLVKPSQTLSLTCAISGDSVSSNSAAWNWIRQSPSRGLEWLGRTYYRSKWYNDYAVSVKSRITINPDTSKNQFSLQLNSVTPEDTAVYYCARETVAVDAFDIWGQGTMVTVSS VL: not shown
